Source: the supplement of paper PMC9732359
± gives the uncertainty stated by the source.

Assay: protein stability index of a GFP-peptide fusion (yeast GPS) (PSI 1-4); higher = more stable; sorted into four equal gates, so the index is relative within each strain
Outline: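 For each peptide, the protein stability index sums the read frequency in every gate after multiplying it by the gate number. Read frequencies came from plasmids that were PCR-amplified from each gate and Illumina-sequenced, with reads assigned to strains by barcodes. The gates were four equal bins of GFP/Cherry fluorescence ratio applied to mid-log yeast in leucine-free medium carrying a pooled library of tiled 17-residue yeast protein peptides fused downstream of GFP on a Cherry-expressing plasmid.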

Row | Sequence | protein stability index (doa10∆) | protein stability index (pdr5∆) | protein stability index (san1∆) | protein stability index (ubr1∆)
1 | TVLETLLSDVNQNQRNV [SMC3] | 3.23 ± 0.13 | 2.94 ± 0.057 | 3.01 ± 0.085 | 3.02 ± 0.082
2 | VSRGQSAVLLETTLGEM [PRP8] | 2.13 ± 0.12 | 2.36 ± 0.15 | – | –
3 | MQFAKSKTVKVLKTLIE [RPN6] | 1.24 ± 0.071 | 1.43 ± 0.077 | 2.51 ± 0.11 | 2.26 ± 0.093
4 | NLLIQRLNFNQNSSKIV [SWI3] | 2.71 ± 0.053 | 2.81 ± 0.051 | 3.06 ± 0.038 | 2.93 ± 0.041
5 | PLKYAPHLPFSKSENPV [SWI3] | 2.81 ± 0.076 | 2.95 ± 0.078 | 2.66 ± 0.091 | 2.93 ± 0.074
6 | NKVCRIEAASTTQDQCK [RPB8] | 2.66 ± 0.056 | 2.89 ± 0.07 | 2.63 ± 0.075 | 2.93 ± 0.063
7 | NFHNSKKRMNSNQERCH [RRI1] | 2.51 ± 0.062 | 2.51 ± 0.057 | 2.83 ± 0.071 | 2.99 ± 0.07
8 | SGYVRSRGESDDSLNRL [RPS21A] | 2.94 ± 0.14 | 1.85 ± 0.074 | 2.17 ± 0.084 | 2.88 ± 0.059
9 | EARLPSQVVWIRRLRVL [RPL19A] | 1.31 ± 0.072 | 1.63 ± 0.078 | 1.33 ± 0.11 | 1.44 ± 0.075
10 | VKKASGEIVSINQINEA [RPL20A] | 2.89 ± 0.1 | 2.82 ± 0.092 | 2.81 ± 0.062 | 2.79 ± 0.066
11 | SPAVKKLLQLAGVEDVY [RPS2] | 1.58 ± 0.062 | 1.76 ± 0.14 | – | 2.05 ± 0.2
12 | EQKLIDQHVINILWAIY [YCS4] | 1.87 ± 0.042 | 2.28 ± 0.04 | 1.93 ± 0.053 | 1.68 ± 0.035
13 | IPTNPVDNENNKPAIKE [SWI3] | 2.95 ± 0.074 | 3.1 ± 0.083 | 2.89 ± 0.11 | 3.21 ± 0.068
14 | ANVELTPSNIRSLCEVL [RPC34] | 1.32 ± 0.053 | 1.68 ± 0.064 | 1.69 ± 0.078 | 2.02 ± 0.07
15 | QQPNPLQDLISVYGLDD [ROX3] | 1.95 ± 0.073 | 1.76 ± 0.061 | 2.02 ± 0.15 | 1.97 ± 0.084
16 | NQQQQQQQQQQQQRRQL [GAL11] | 2.79 ± 0.056 | 2.9 ± 0.063 | 2.84 ± 0.043 | 2.91 ± 0.051
17 | MNIIQQQQQQNTNNNDT [GAL11] | 2.43 ± 0.042 | 2.63 ± 0.047 | 2.46 ± 0.044 | 2.52 ± 0.04
18 | SINISCVQLIKCLVEKS [SWI1] | 1.78 ± 0.067 | 2.41 ± 0.055 | 2.27 ± 0.1 | 1.81 ± 0.045
19 | SQFLKRVHANLQCISQI [SNF11] | 1.17 ± 0.043 | 1.25 ± 0.041 | 1.21 ± 0.07 | 1.2 ± 0.057
20 | SSLSFGPENALNVYHYF [YJL039C/NUP192] | 1.94 ± 0.031 | 2.11 ± 0.038 | 2.04 ± 0.05 | 2.67 ± 0.029
21 | FSQEALQYVVERVGKRT [FAS1] | 1.07 ± 0.091 | 1.24 ± 0.11 | – | 1.17 ± 0.09
22 | TVYISSIALLKMLKHGR [RPN11] | 2.25 ± 0.085 | 2.09 ± 0.079 | 2.65 ± 0.054 | 2.79 ± 0.066
23 | EDRNESVNIAFAISMGY [ECM29] | 3.02 ± 0.12 | 2.89 ± 0.074 | 2.88 ± 0.055 | 2.82 ± 0.07
24 | QQQTNALNGIDINTVNT [GRR1] | 3.31 ± 0.053 | 3.25 ± 0.055 | 3.24 ± 0.044 | 3.19 ± 0.05
25 | IIYHTTFSWLNAELLDY [YLR018C/POM34] | 2.72 ± 0.072 | 2.19 ± 0.068 | 2.56 ± 0.092 | 2.41 ± 0.052
26 | PQRLQRKRHQRALKVRN [RPS6A] | 2.96 ± 0.1 | 2.9 ± 0.069 | 2.64 ± 0.096 | 2.87 ± 0.046
